According to patent publication US20250222127A1, “COMPOSITIONS AND METHODS FOR TREATING AND PREVENTING TRANSPLANT-ASSOCIATED INJURY” (MUSC Foundation For Research Development, priority 2016, published 2025):

Tests used:
allogeneic grafts = experiment: Graft survival with B4-Crry and subtherapeutic tacrolimus; format: in vivo
Experimental: FIG. 6 depicts the results of example experiments depicting the survival curve from B4-Crry and subtherapeutic tacrolimus.
Experiments were conducted to examine the effects of B4-Crry in combination with sub-therapeutic tacrolimus (also known as FK506). Tacrolimus was given at 1 mg/kg/day. […] Thus, untreated allogeneic grafts reject at the same extent as the subtherapeutic Tacrolimus treated animals. B4-Crry was given at 0 and 24 hours post-transplant and Tacrolimus was given at 1 mg/kg/day for the duration of the experiment (until full rejection of the graft).

[1] = molecular target: T1, annexin IV in post-ischemic mouse tissue (transplanted heart, brain-dead donor cardiac grafts, liver) (mouse, UniProt P97429 1-319, limits assumed); experiment: perfusion of radiolabeled (125I) B4scFv-Crry through cardiac grafts of brain-dead or living donors, counted after flush
T1 construct: The target was whole grafts or tissue
T1 sequence (looked up): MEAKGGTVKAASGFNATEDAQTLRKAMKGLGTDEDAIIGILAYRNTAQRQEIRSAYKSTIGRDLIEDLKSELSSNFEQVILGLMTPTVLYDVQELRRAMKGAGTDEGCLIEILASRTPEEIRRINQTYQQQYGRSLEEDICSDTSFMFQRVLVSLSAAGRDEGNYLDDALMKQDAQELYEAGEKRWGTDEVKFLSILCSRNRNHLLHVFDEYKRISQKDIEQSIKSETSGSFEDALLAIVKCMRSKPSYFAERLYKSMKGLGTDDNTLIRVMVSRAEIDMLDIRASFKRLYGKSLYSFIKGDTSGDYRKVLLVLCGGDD
Experimental: FIG. 5 depicts the Binding of ¹²⁵I-B4-Crry after perfusion of grafts of BD (3 hours) or living donors. […] After 5 minutes, flush with 0.5 ml PBS, weigh and count.
In this experiment, B4scFv-Crry was administered to the donor hearts as a constituent of the UW preservation solution. […] The donor heart was then isolated and perfused with 0.5 mL ice cold UW or I¹²⁵-B4scFv-Crry via the proximal aortic arch.

transplanted heart = experiment: Cardiac allograft transplant model (B4scFv targeting strategy); format: in vivo, mice
Experimental: (§1) A therapeutic strategy that exploited this post-ischemia recognition system of natural antibodies was then developed and characterized. Based on neoepitope identification, an anti-annexin-IV single chain antibody (B4scFv) and an scFv linked to Crry (B4scFv-Crry) was constructed. […] Further, post-ischemic expression of the B4scFv neoepitope has been observed in multiple tissues/organs in both mouse and humans. […] Liver biopsies were obtained from human donor livers following Tx and 1 hour reperfusion. […] Similar data was obtained with normal and ischemic brain samples obtained from stroke patients. Finally, it is shown herein that a decrease in anti-annexin IV Abs in human serum 24 hours after cardiac Tx as compared to pre-Tx levels (note that levels were not decreased in 2 patients, which is likely due to transfusion volume) (Table 1). […] In certain aspects, there may be benefits of a neoepitope vs. C3d targeting approach for protection against IRI in a transplant. […] Second, the targeting vehicle itself contributes to therapeutic activity by blocking the binding of complement activating pathogenic IgM, which in turn reduces the binding of Clq and MBL, which can impact inflammation, endothelial activation, cell trafficking, and Ag-presentation. Third, it is likely less immunosuppressive since not all sites of infection and C3 deposition will be targeted with complement inhibition.

annexin IV = molecular target: T2, annexin IV (Homo sapiens, UniProt P09525); experiment: Immunohistochemistry of human donor liver biopsies following Tx and 1 hour reperfusion; format: binding
T2 construct: Liver biopsies were obtained from human donor livers following Tx and 1 hour reperfusion; from tissue; host or cells: human donor liver biopsies after transplantation and 1 hour reperfusion
T2 sequence (P09525 2-319 limits assumed): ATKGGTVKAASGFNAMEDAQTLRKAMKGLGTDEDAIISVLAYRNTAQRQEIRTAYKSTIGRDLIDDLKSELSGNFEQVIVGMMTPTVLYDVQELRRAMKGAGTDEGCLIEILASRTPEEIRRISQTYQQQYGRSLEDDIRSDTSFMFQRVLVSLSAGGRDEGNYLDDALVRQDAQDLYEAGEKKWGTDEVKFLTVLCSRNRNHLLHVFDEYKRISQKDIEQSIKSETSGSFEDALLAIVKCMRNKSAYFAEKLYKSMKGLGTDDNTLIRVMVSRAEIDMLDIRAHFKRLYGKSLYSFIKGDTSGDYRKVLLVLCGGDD
Experimental: as §1

[2] = test system: post-ischemic human brain; experiment: Binding to normal and ischemic brain samples from stroke patients
Experimental: as §1

VC isografts = experiment: Ischemia reperfusion injury of VC isografts, histology scoring of skin and muscle; format: in vivo; conditions: VC isografts in treated wild type mice
Experimental: Experiments were conducted to evaluate the effects of antibody-targeted complement inhibition on acute graft injury. VC isografts were transplanted into Rag −/− mice or wildtype mice. Mice were treated with PBS, B4 IgM mAb or B4-Crry. Isolated VCAs were stained and scored using a histology scoring system.

[3] = allograft transplant model, recipients with full natural antibody repertoire

For `C=CC[C@@H]1/C=C(\C)C[C@H](C)C[C@H](OC)[C@H]2O[C@@](O)(C(=O)C(=O)N3CCCC[C@H]3C(=O)O[C@H](/C(C)=C/[C@@H]3CC[C@@H](O)[C@H](OC)C3)[C@H](C)[C@@H](O)CC1=O)[C@H](C)C[C@@H]2OC` [Tacrolimus, reference compound], the graft survival (allogeneic grafts; tacrolimus alone, 1 mg/kg/day (subtherapeutic)) was “does not prolong survival”.

B1: B4scFv-Crry (scFv)
chain: VKLQESGPELVKPGASVKISCKASGYTFTDYYMNWVKQSHGKSLEWIGDINPNNGGTSYNQKFKGKATLTVDKSSSTAYMELRSLTSEDSAVYYCARYDYAWYFDVWGQGTTVTVSSGGGGSGGGGSGGGGDVLMTQTPLSLPVSLGDQASISCRSSQSIVHSNGNTYLEWYLQKPGQSPKLLIYKVSNRFSGVPDRFSGSGSGTDFTLKISRVEAEDLGVYYCFQGSHVPYTFGGGTKLEIKRGGGGSGGGGSCPAPSQLPSAKPINLTDESMFPIGTYLLYECLPGYIKRQFSITCKQDSTWTSAEDKCIRKQCKTPSDPENGLVHVHTGIQFGSRINYTCNQGYRLIGSSSAVCVITDQSVDWDTEAPICEWIPCEIPPGIPNGDFFSSTREDFHYGMVVTYRCNTDARGKALFNLVGEPSLYCTSNDGEIGVWSGPPPQCIELNKCTPPPYVENAVMLSENRSLFSLRDIVEFRCHPGFIMKGASSVHCQSLNKWEPELPSCFKGVICRLPQEMSGFQKGLGMKKEYYYGENVTLECEDGYTLEGSSQSQCQSDGSWNPLLAKCVSRSIIEGRHHHHHH
modifications: 125I radiolabel in the graft perfusion experiment (position not given)
notes: also called B4-Crry; B4Crry
For B1, the “fold higher binding in BD vs. living donor grafts” value [1] was 7 fold.

B2: B4scFv-Crry: anti-annexin-IV single chain antibody (B4scFv) linked to Crry; B4Crry amino acid sequence SEQ ID NO: 62 (protein)
chain: MSVPTQVLGLLLLWLTDARCVKLQESGPELVKPGASVKISCKASGYTFTDYYMNWVKQSHGKSLEWIGDINPNNGGTSYNQKFKGKATLTVDKSSSTAYMELRSLTSEDSAVYYCARYDYAWYFDVWGQGTTVTVSSGGGGSGGGGSGGGGDVLMTQTPLSLPVSLGDQASISCRSSQSIVHSNGNTYLEWYLQKPGQSPKLLIYKVSNRFSGVPDRFSGSGSGTDFTLKISRVEAEDLGVYYCFQGSHVPYTFGGGTKLEIKRGGGGSGGGGSCPAPSQLPSAKPINLTDESMFPIGTYLLYECLPGYIKRQFSITCKQDSTWTSAEDKCIRKQCKTPSDPENGLVHVHTGIQFGSRINYTCNQGYRLIGSSSAVCVITDQSVDWDTEAPICEWIPCEIPPGIPNGDFFSSTREDFHYGMVVTYRCNTDARGKALFNLVGEPSLYCTSNDGEIGVWSGPPPQCIELNKCTPPPYVENAVMLSENRSLFSLRDIVEFRCHPGFIMKGASSVHCQSLNKWEPELPSCFKGVICRLPQEMSGFQKGLGMKKEYYYGENVTLECEDGYTLEGSSQSQCQSDGSWNPLLAKCVSRSIIEGRHHHHHH
modifications: B4Crry amino acid sequence
For B2, the “cardiac graft inflammation and injury” value (transplanted heart; allograft transplant model) was “significantly reduced”, the “complement activation in graft” value (transplanted heart; [3]) was “blocked” and the “graft IgM binding” value (transplanted heart; [3]) was “blocked”. The “targeting to the transplanted heart” value (transplanted heart; cardiac Tx model) was “specifically targeted to the transplanted heart”, the immunity to infection (transplanted heart; compared with complement deficiency) was “did not affect immunity to infection” and the graft survival (allogeneic grafts; B4-Crry at 0 and 24 hours post-transplant combined with tacrolimus 1 mg/kg/day, vs. tacrolimus alone) was “significantly prolongs graft survival”. The “staining of biopsies obtained post-Tx” value (annexin IV; human liver biopsies post-Tx) was “stained biopsies obtained post-Tx”, the “staining of samples from normal biopsies” value (annexin IV; normal human liver biopsies) was “not samples from normal biopsies” and the “binding to post-ischemic human liver” value (annexin IV; post-ischemic human liver) was “directly bind”. For the same molecule, the “binding to post-ischemic human brain” value [2] was “directly bind” and the “Ischemia reperfusion injury (skin and muscle histopathological score)” value (VC isografts) was “protection from IRI”.
